Some targets named below: HLA-A*68:02; HLA-A*02:03; HLA-A*02:02; HLA-A*02:01; HLA-A*02:06.
Common to all, as to experiment: IEDB peptide-MHC binding, purified MHC/competitive/radioactivity; ≥ and ≤ were set here for values at or beyond the usual limits of such assays
Setting [1] is: source organism: Vaccinia virus WR.
[2] abbreviates: source organism: Hepacivirus hominis.
Where [3] appears, read: source organism: Mammarenavirus machupoense.
Where [4] appears, read: source organism: Mammarenavirus juninense.

What is called IC50 is the concentration at which inhibition is half-maximal. In the case of IVYGRSNAI, the IC50 in the assay with HLA-A*68:02 (setting [1]) was 6.1 nM; with HLA-A*02:03 (setting [1]), 16 nM; in the assay with HLA-A*02:02 (setting [1]), 15 nM; with HLA-A*02:01 (setting [1]), 228 nM; in the assay with HLA-A*02:06 (setting [1]) it was 30 nM.
On to IVYGRSNAIL, for which the IC50 with HLA-A*68:02 (setting [1]) was found to be 642 nM; in the assay with HLA-A*02:03 (setting [1]) it was 33 nM; in the assay with HLA-A*02:02 (setting [1]) it was 92 nM; with HLA-A*02:01 (setting [1]), 724 nM; with HLA-A*02:06 (setting [1]), 424 nM.
On the same counts, the results for KAKQLCYCPA are 2460 nM, 188 nM, 308 nM, 1500 nM and 339 nM.
With KASTISWMM, the concentration for half-maximal inhibition (IC50) in the assay with HLA-A*68:02 (setting [1]) worked out at 2940 nM; with HLA-A*02:03 (setting [1]) it was 556 nM; in the assay with HLA-A*02:02 (setting [1]) it was 429 nM; in the assay with HLA-A*02:01 (setting [1]), 1410 nM; in the assay with HLA-A*02:06 (setting [1]) it was 797 nM.
Take KIEDLINQLV: the half-maximal inhibitory concentration (IC50) with HLA-A*68:02 (setting [1]) came to 1050 nM; with HLA-A*02:03 (setting [1]), 71 nM; in the assay with HLA-A*02:02 (setting [1]), 87 nM; with HLA-A*02:01 (setting [1]), 286 nM; in the assay with HLA-A*02:06 (setting [1]), 145 nM.
As to KIILFLTLI, the IC50 with HLA-A*68:02 (source organism: SARS-CoV1) was 378 nM; with HLA-A*02:03 (source organism: SARS-CoV1), 4.9 nM; in the assay with HLA-A*02:02 (source organism: SARS-CoV1), 68 nM; with HLA-A*02:01 (source organism: SARS-CoV1) it was 141 nM; with HLA-A*02:06 (source organism: SARS-CoV1), 24 nM.
Take KIMEIVSHL: the IC50 with HLA-A*68:02 (setting [1]) came out at 1070 nM; in the assay with HLA-A*02:03 (setting [1]) it was 10 nM; with HLA-A*02:02 (setting [1]), 79 nM; with HLA-A*02:01 (setting [1]) it was 76 nM; in the assay with HLA-A*02:06 (setting [1]), 30 nM.
For KIYTLIYRQL, the IC50 in the assay with HLA-A*68:02 (setting [1]) came to 4670 nM; in the assay with HLA-A*02:03 (setting [1]), 1030 nM; in the assay with HLA-A*02:02 (setting [1]), 707 nM; with HLA-A*02:01 (setting [1]), 4020 nM; with HLA-A*02:06 (setting [1]) it was 912 nM.
As to KLFTHDIML, the IC50 in the assay with HLA-A*68:02 (setting [1]) is 769 nM; in the assay with HLA-A*02:03 (setting [1]), 3 nM; in the assay with HLA-A*02:02 (setting [1]), 1 nM; with HLA-A*02:01 (setting [1]), 1.4 nM; with HLA-A*02:06 (setting [1]), 4.7 nM.
With KLIEYSDFA, the IC50 with HLA-A*68:02 (source organism: SARS-CoV1) amounted to 10 nM; with HLA-A*02:03 (source organism: SARS-CoV1), 0.53 nM; in the assay with HLA-A*02:02 (source organism: SARS-CoV1), 0.095 nM; in the assay with HLA-A*02:01 (source organism: SARS-CoV1), 0.54 nM; with HLA-A*02:06 (source organism: SARS-CoV1), 0.71 nM.
Regarding KLLIAILGPL, the IC50 with HLA-A*68:02 (setting [2]) was 4230 nM; in the assay with HLA-A*02:03 (setting [2]), 5.9 nM; in the assay with HLA-A*02:02 (setting [2]) it was 12 nM; with HLA-A*02:01 (setting [2]) it was 67 nM; with HLA-A*02:06 (setting [2]), 12 nM.
Consider KLLYAAEMV, for which the IC50 with HLA-A*68:02 (setting [1]) was 2810 nM; with HLA-A*02:03 (setting [1]), 54 nM; with HLA-A*02:02 (setting [1]), 58 nM; with HLA-A*02:01 (setting [1]) it was 48 nM; with HLA-A*02:06 (setting [1]), 18 nM.
For KLMGHFSWWT, the IC50 with HLA-A*68:02 (source organism: SARS-CoV1) was found to be 2080 nM; in the assay with HLA-A*02:03 (source organism: SARS-CoV1), 213 nM; in the assay with HLA-A*02:02 (source organism: SARS-CoV1), 64 nM; with HLA-A*02:01 (source organism: SARS-CoV1), 6.4 nM; with HLA-A*02:06 (source organism: SARS-CoV1) it was 99 nM.
KLPTLFGRGV: the IC50 was 509 nM with HLA-A*68:02 (setting [1]); 33 nM in the assay with HLA-A*02:03 (setting [1]); 190 nM with HLA-A*02:02 (setting [1]); 273 nM with HLA-A*02:01 (setting [1]); 53 nM in the assay with HLA-A*02:06 (setting [1]).
As for KLYGYASLTT, the IC50 in the assay with HLA-A*68:02 (setting [1]) was 1740 nM; in the assay with HLA-A*02:03 (setting [1]), 0.26 nM; with HLA-A*02:02 (setting [1]), 1.9 nM; with HLA-A*02:01 (setting [1]), 19 nM; with HLA-A*02:06 (setting [1]), 34 nM.
Turning to KMAVEVGSI, the IC50 with HLA-A*68:02 (setting [1]) was 806 nM; with HLA-A*02:03 (setting [1]), 2.8 nM; with HLA-A*02:02 (setting [1]), 31 nM; with HLA-A*02:01 (setting [1]), 155 nM; in the assay with HLA-A*02:06 (setting [1]), 119 nM.
Regarding KQYDSTDFKM, the IC50 with HLA-A*68:02 (setting [1]) stood at 3540 nM; with HLA-A*02:03 (setting [1]) it was 3280 nM; with HLA-A*02:02 (setting [1]), 8.4 nM; in the assay with HLA-A*02:01 (setting [1]), 309 nM; with HLA-A*02:06 (setting [1]), 107 nM.
On to KSFFWFNEV, for which the IC50 with HLA-A*68:02 (setting [3]) is 84 nM; with HLA-A*02:03 (setting [3]), 265 nM; with HLA-A*02:02 (setting [3]) it was 62 nM; in the assay with HLA-A*02:01 (setting [3]), 6.5 nM; with HLA-A*02:06 (setting [3]), 3.2 nM.
Regarding KSGLFQFFV, the IC50 was determined as 201 nM with HLA-A*68:02 (setting [4]); 1560 nM with HLA-A*02:03 (setting [4]); 23 nM with HLA-A*02:02 (setting [4]); 17 nM with HLA-A*02:01 (setting [4]); 8.1 nM with HLA-A*02:06 (setting [4]).
For the sequence KTANNYETI, the IC50 in the assay with HLA-A*68:02 (setting [1]) stood at 1320 nM; in the assay with HLA-A*02:03 (setting [1]), 38 nM; in the assay with HLA-A*02:02 (setting [1]), 37 nM; with HLA-A*02:01 (setting [1]), 2240 nM; with HLA-A*02:06 (setting [1]), 329 nM.
Consider KTDGAVTSPL, for which the half-inhibitory concentration (IC50) was found to be 542 nM in the assay with HLA-A*68:02 (setting [1]); 400 nM in the assay with HLA-A*02:03 (setting [1]); 62 nM in the assay with HLA-A*02:02 (setting [1]); 1080 nM in the assay with HLA-A*02:01 (setting [1]); 347 nM with HLA-A*02:06 (setting [1]).
The matching figures for KVEKYLPEV: 1520 nM, 171 nM, 1050 nM, 17 nM and 116 nM.
Take KVIKLVKSL: the IC50 in the assay with HLA-A*68:02 (setting [1]) was 366 nM; with HLA-A*02:03 (setting [1]), 43 nM; in the assay with HLA-A*02:02 (setting [1]), 578 nM; with HLA-A*02:01 (setting [1]), 395 nM; with HLA-A*02:06 (setting [1]), 260 nM.
Turning to KVLSIMAFIL, the IC50 with HLA-A*68:02 (setting [1]) was 2970 nM; with HLA-A*02:03 (setting [1]), 684 nM; with HLA-A*02:02 (setting [1]), 2.3 nM; with HLA-A*02:01 (setting [1]), 88 nM; in the assay with HLA-A*02:06 (setting [1]), 19 nM.

The values are drawn from the Immune Epitope Database (IEDB).
